# Patent US20250320281A1
# Assays:
# [1] = molecular target: HIV-1 envelope glycoprotein (Env) of isolate JR-FL (HIV-1); experiment: cell-based or functional assay
# [2] = molecular target: HIV-1 envelope glycoprotein (Env) of isolate MGRM-Chronic-B-003 (HIV-1); experiment: cell-based or functional assay
# [3] = molecular target: HIV-1 Env of isolate 92WR009 (subtype A) (HIV-1); experiment: cell-based or functional assay
# [4] = molecular target: HIV-1 envelope glycoprotein (Env) of isolate MGRM-Chronic-B-008 (HIV-1); experiment: cell-based or functional assay
# [5] = molecular target: HIV-1 envelope glycoprotein (Env) of isolate CAAN.A2 (HIV-1); experiment: cell-based or functional assay
# [6] = molecular target: HIV-1 Env of isolate 92UG031 (subtype A) (HIV-1); experiment: cell-based or functional assay
# [7] = molecular target: HIV-1 Env of isolate 92RW008 (subtype A) (HIV-1); experiment: cell-based or functional assay
# JR-FL gp120 ΔV3 (HIV-1) = experiment: ELISA, antigen-coated wells
# [8] = molecular target: HIV-1 MGRM-C-028 envelope glycoprotein (Env) on pseudovirus (HIV-1); experiment: cell-based or functional assay
# [9] = molecular target: HIV-1 APV6 envelope glycoprotein (Env) on pseudovirus (HIV-1); experiment: cell-based or functional assay
# [10] = molecular target: HIV-1 MGRM-A-010 envelope glycoprotein (Env) on pseudovirus (HIV-1); experiment: cell-based or functional assay
# [11] = molecular target: HIV-1 Env of isolate MGRM-AG-013 (HIV-1); experiment: cell-based or functional assay
# [12] = molecular target: HIV-1 APV17 envelope glycoprotein (Env) on pseudovirus (HIV-1); experiment: cell-based or functional assay
# [13] = molecular target: HIV-1 MGRM-C-026 envelope glycoprotein (Env) on pseudovirus (HIV-1); experiment: cell-based or functional assay
# [14] = molecular target: HIV-1 Env of isolate MGRM-C-026 (clade C pseudovirus) (HIV-1); experiment: cell-based or functional assay
# [15] = molecular target: HIV-1 Env of isolate CAAN.A2 (HIV-1); experiment: cell-based or functional assay
# [16] = molecular target: HIV-1 Env of isolate MGRM-C-028 (clade C pseudovirus) (HIV-1); experiment: cell-based or functional assay
# [17] = molecular target: HIV-1 Env of isolate MGRM-Chronic-B-012 (HIV-1); experiment: cell-based or functional assay
# [18] = molecular target: HIV-1 Env of isolate MG RM-D-016 (clade D), on pseudovirus (HIV-1); experiment: cell-based or functional assay
# [19] = molecular target: HIV-1 Env of isolate MGRM-F1-010 (clade F), on pseudovirus (HIV-1); experiment: cell-based or functional assay
# [20] = molecular target: HIV-1 Env of isolate MG RM-D-013 (clade D), on pseudovirus (HIV-1); experiment: cell-based or functional assay
# [21] = molecular target: HIV-1 Env of pseudovirus MGRM-A-003 (subtype A) (HIV-1); experiment: cell-based or functional assay
# [22] = molecular target: HIV-1 Env of isolate 92UG114 (clade D), on pseudovirus (HIV-1); experiment: cell-based or functional assay
# [23] = molecular target: HIV-1 Env of isolate MGRM-F1-020 (clade F pseudovirus) (HIV-1); experiment: cell-based or functional assay
# [24] = molecular target: HIV-1 Env of isolate 92UG046 (clade D), on pseudovirus (HIV-1); experiment: cell-based or functional assay
# [25] = molecular target: HIV-1 Env of pseudovirus MGRM-A-005 (subtype A) (HIV-1); experiment: cell-based or functional assay
# [26] = molecular target: HIV-1 Env of pseudovirus 92WR021 (subtype A) (HIV-1); experiment: cell-based or functional assay
# [27] = molecular target: HIV-1 Env of isolate MGRM-Chronic-B-004 (HIV-1); experiment: cell-based or functional assay
# [28] = molecular target: HIV-1 Env of isolate MGRM-Chronic-B-002 (HIV-1); experiment: cell-based or functional assay
# [29] = molecular target: HIV-1 Env of isolate APV17 (HIV-1); experiment: cell-based or functional assay
# [30] = molecular target: HIV-1 Env of pseudovirus MGRM-A-007 (subtype A) (HIV-1); experiment: cell-based or functional assay
# [31] = molecular target: HIV-1 Env of isolate MG RM-D-005 (clade D), on pseudovirus (HIV-1); experiment: cell-based or functional assay
# [32] = molecular target: HIV-1 Env of isolate MGRM-F1-004 (clade F), on pseudovirus (HIV-1); experiment: cell-based or functional assay
# [33] = molecular target: HIV-1 Env of isolate MG RM-D-003 (clade D), on pseudovirus (HIV-1); experiment: cell-based or functional assay
# [34] = molecular target: HIV-1 Env of pseudovirus 92WR009 (subtype A) (HIV-1); experiment: cell-based or functional assay
# [35] = molecular target: HIV-1 Env of pseudovirus 92WR024 (subtype A) (HIV-1); experiment: cell-based or functional assay
# [36] = molecular target: HIV-1 SF162 Env on pseudotyped virus (HIV-1 isolate SF162); experiment: cell-based or functional assay
# [37] = molecular target: HIV-1 IAVI_C22 Env on pseudotyped virus (HIV-1 isolate IAVI_C22); experiment: cell-based or functional assay
# [38] = molecular target: HIV-1 92BR020 Env on pseudotyped virus (HIV-1 isolate 92BR020); experiment: cell-based or functional assay
# [39] = molecular target: aMLV envelope on pseudotyped virus (negative control) (aMLV); experiment: cell-based or functional assay
# [40] = molecular target: HIV-1 ADA Env (HIV-1 ADA); experiment: cell-based or functional assay
# 4970_K22 (PGT-144) (antibody), sequence (VH): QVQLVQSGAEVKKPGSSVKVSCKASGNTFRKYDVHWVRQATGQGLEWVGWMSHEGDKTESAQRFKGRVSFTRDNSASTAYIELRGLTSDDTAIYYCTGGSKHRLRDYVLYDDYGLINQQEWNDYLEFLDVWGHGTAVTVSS
# 4970_K22 (PGT-144) (antibody), sequence (VL): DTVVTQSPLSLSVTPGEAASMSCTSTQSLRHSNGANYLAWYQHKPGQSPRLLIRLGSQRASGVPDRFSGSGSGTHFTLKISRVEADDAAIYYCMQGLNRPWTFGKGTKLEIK
# 4995_E20 (PGT-142) (antibody), sequence (VH): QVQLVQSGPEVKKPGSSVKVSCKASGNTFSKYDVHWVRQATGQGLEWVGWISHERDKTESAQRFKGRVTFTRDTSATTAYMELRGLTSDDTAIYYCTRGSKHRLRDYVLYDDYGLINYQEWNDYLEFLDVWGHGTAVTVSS
# 4995_E20 (PGT-142) (antibody), sequence (VL): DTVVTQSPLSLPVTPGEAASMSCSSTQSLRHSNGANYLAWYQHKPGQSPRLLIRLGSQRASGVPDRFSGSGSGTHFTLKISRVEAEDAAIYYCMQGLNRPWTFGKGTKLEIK
# 5329_C19 (PGT-136) (antibody), sequence (VH): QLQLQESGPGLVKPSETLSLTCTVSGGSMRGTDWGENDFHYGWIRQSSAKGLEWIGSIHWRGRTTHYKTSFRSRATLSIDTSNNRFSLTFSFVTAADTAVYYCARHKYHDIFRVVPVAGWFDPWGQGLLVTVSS
# 5329_C19 (PGT-136) (antibody), sequence (VL): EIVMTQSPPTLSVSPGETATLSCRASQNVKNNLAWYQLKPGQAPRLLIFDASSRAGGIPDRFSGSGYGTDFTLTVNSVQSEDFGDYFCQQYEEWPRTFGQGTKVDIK
substance,measurement,setting,value
4995_E20 (PGT-142) (antibody),"IC50 (µg/mL), pseudovirus neutralization",[1],> 50 µg/mL
same,"IC50 (µg/mL), pseudovirus neutralization",[2],0.484 µg/mL
same,"IC50 (µg/mL), pseudovirus neutralization",[3],0.006 µg/mL
same,"IC50 (µg/mL), pseudovirus neutralization",[4],> 50 µg/mL
same,"IC50 (µg/mL), pseudovirus neutralization",[5],> 50 µg/mL
same,"IC50 (µg/mL), pseudovirus neutralization",[6],0.05 µg/mL
same,"IC50 (µg/mL), pseudovirus neutralization",[7],0.447 µg/mL
5114_A19 (PGT-128) (antibody),EC50,JR-FL gp120 ΔV3 (HIV-1),7.8 µg/mL
4858_P08 (PGT-123) (antibody),neutralization IC50,[8],0.443 µg/mL
same,neutralization IC80,[8],2.8 µg/mL
same,neutralization IC90,[8],7.11 µg/mL
same,neutralization IC95,[8],> 10 µg/mL
same,neutralization IC50,[9],0.0328 µg/mL
same,neutralization IC80,[9],0.145 µg/mL
same,neutralization IC90,[9],0.339 µg/mL
same,neutralization IC95,[9],0.726 µg/mL
same,neutralization IC50,[10],0.492 µg/mL
same,neutralization IC80,[10],2.79 µg/mL
same,neutralization IC90,[10],6.44 µg/mL
same,neutralization IC95,[10],> 10 µg/mL
same,IC50,[11],3.37 µg/mL
same,neutralization IC50,[12],0.18 µg/mL
same,neutralization IC80,[12],0.539 µg/mL
same,neutralization IC90,[12],1.01 µg/mL
same,neutralization IC95,[12],1.75 µg/mL
same,neutralization IC50,[13],0.0031 µg/mL
same,neutralization IC80,[13],0.0094 µg/mL
same,neutralization IC90,[13],0.0183 µg/mL
same,neutralization IC95,[13],0.0338 µg/mL
VRC01 (antibody),"IC50 (µg/mL), pseudovirus neutralization",[1],0.034 µg/mL
same,"IC50 (µg/mL), pseudovirus neutralization",[2],0.1 µg/mL
same,"IC50 (µg/mL), pseudovirus neutralization",[3],0.187 µg/mL
same,"IC50 (µg/mL), pseudovirus neutralization",[4],0.155 µg/mL
same,"IC50 (µg/mL), pseudovirus neutralization",[5],0.722 µg/mL
same,"IC50 (µg/mL), pseudovirus neutralization",[6],0.469 µg/mL
same,"IC50 (µg/mL), pseudovirus neutralization",[7],0.037 µg/mL
PGV04 (antibody),"IC50 (µg/mL), pseudovirus neutralization",[14],0.303 µg/mL
same,"IC50 (µg/mL), pseudovirus neutralization",[15],2.26 µg/mL
same,"IC50 (µg/mL), pseudovirus neutralization",[16],0.149 µg/mL
same,"IC50 (µg/mL), pseudovirus neutralization",[17],> 50 µg/mL
same,"IC50 (µg/mL), pseudovirus neutralization",[18],0.201 µg/mL
same,"IC50 (µg/mL), pseudovirus neutralization",[19],0.184 µg/mL
same,"IC50 (µg/mL), pseudovirus neutralization",[20],0.088 µg/mL
same,"IC50, pseudovirus neutralization",[21],0.128 µg/mL
same,"IC50 (µg/mL), pseudovirus neutralization",[22],0.461 µg/mL
same,"IC50 (µg/mL), pseudovirus neutralization",[23],5.99 µg/mL
same,"IC50 (µg/mL), pseudovirus neutralization",[24],22.4 µg/mL
same,"IC50, pseudovirus neutralization",[25],0.134 µg/mL
same,"IC50, pseudovirus neutralization",[26],0.038 µg/mL
same,"IC50 (µg/mL), pseudovirus neutralization",[27],0.047 µg/mL
same,"IC50 (µg/mL), pseudovirus neutralization",[28],0.142 µg/mL
same,"IC50 (µg/mL), pseudovirus neutralization",[29],0.309 µg/mL
same,"IC50, pseudovirus neutralization",[30],7.21 µg/mL
same,"IC50 (µg/mL), pseudovirus neutralization",[31],> 50 µg/mL
same,"IC50 (µg/mL), pseudovirus neutralization",[32],0.58 µg/mL
same,"IC50 (µg/mL), pseudovirus neutralization",[33],> 50 µg/mL
same,"IC50, pseudovirus neutralization",[34],0.108 µg/mL
same,"IC50, pseudovirus neutralization",[35],0.31 µg/mL
4877_D15 (PGT-122) (antibody),IC50,[11],0.521 µg/mL
1495_C14 (PGC14) (antibody),Neutralizing Antibody Assay: IC50; Virus/Ab Incubation 1 hour,[36],0.0069 µg/mL
same,Neutralizing Antibody Assay: IC50; Virus/Ab Incubation 18 hour,[36],< 0.0025 µg/mL
same,Neutralizing Antibody Assay: IC50; Virus/Ab Incubation 1 hour,[37],> 50 µg/mL
same,Neutralizing Antibody Assay: IC50; Virus/Ab Incubation 18 hour,[37],13.4 µg/mL
same,Neutralizing Antibody Assay: IC50; Virus/Ab Incubation 1 hour,[38],1.17 µg/mL
same,Neutralizing Antibody Assay: IC50; Virus/Ab Incubation 18 hour,[38],0.244 µg/mL
same,Neutralizing Antibody Assay: IC50; Virus/Ab Incubation 1 hour,[39],> 50 µg/mL
same,Neutralizing Antibody Assay: IC50; Virus/Ab Incubation 18 hour,[39],> 50 µg/mL
4970_K22 (PGT-144) (antibody),"IC50 (µg/mL), pseudovirus neutralization",[1],> 50 µg/mL
same,"IC50 (µg/mL), pseudovirus neutralization",[2],7.41 µg/mL
same,"IC50 (µg/mL), pseudovirus neutralization",[3],0.893 µg/mL
same,"IC50 (µg/mL), pseudovirus neutralization",[4],> 50 µg/mL
same,"IC50 (µg/mL), pseudovirus neutralization",[5],> 50 µg/mL
same,"IC50 (µg/mL), pseudovirus neutralization",[6],2.17 µg/mL
same,"IC50 (µg/mL), pseudovirus neutralization",[7],> 50 µg/mL
5329_C19 (PGT-136) (antibody),EC50,JR-FL gp120 ΔV3 (HIV-1),0.1 µg/mL
1496_C09 (PG9) (TCN-109) (antibody),"IC50 (µg/mL), pseudovirus neutralization",[14],0.06 µg/mL
same,"IC50 (µg/mL), pseudovirus neutralization",[15],19.3 µg/mL
same,"IC50 (µg/mL), pseudovirus neutralization",[16],0.067 µg/mL
same,"IC50 (µg/mL), pseudovirus neutralization",[17],0.2 µg/mL
same,"IC50 (µg/mL), pseudovirus neutralization",[18],0.098 µg/mL
same,"IC50 (µg/mL), pseudovirus neutralization",[19],0.012 µg/mL
same,"IC50 (µg/mL), pseudovirus neutralization",[20],0.021 µg/mL
same,"IC50, pseudovirus neutralization",[21],1.94 µg/mL
same,"IC50 (µg/mL), pseudovirus neutralization",[22],40.6 µg/mL
same,"IC50 (µg/mL), pseudovirus neutralization",[23],6.4 µg/mL
same,"IC50 (µg/mL), pseudovirus neutralization",[24],1.86 µg/mL
same,Neutralizing Antibody Assay: IC50; Virus/Ab Incubation 1 hour,[37],24.9 µg/mL
same,Neutralizing Antibody Assay: IC50; Virus/Ab Incubation 18 hour,[37],2.11 µg/mL
same,"IC50, pseudovirus neutralization",[25],0.75 µg/mL
same,"IC50, pseudovirus neutralization",[26],0.027 µg/mL
same,"IC50 (µg/mL), pseudovirus neutralization",[27],0.533 µg/mL
same,"IC50 (µg/mL), pseudovirus neutralization",[28],3.44 µg/mL
same,"IC50 (µg/mL), pseudovirus neutralization",[29],34.8 µg/mL
same,"IC50, pseudovirus neutralization",[30],1.06 µg/mL
same,"IC50 (ug/ml), pseudovirus neutralization, TZM-bl assay",[40],0.2 µg/mL
same,"IC50 (µg/mL), pseudovirus neutralization",[31],1.8 µg/mL
same,"IC50 (µg/mL), pseudovirus neutralization",[32],0.175 µg/mL
same,"IC50 (µg/mL), pseudovirus neutralization",[33],0.033 µg/mL
same,"IC50, pseudovirus neutralization",[34],0.05 µg/mL
same,"IC50, pseudovirus neutralization",[35],0.258 µg/mL
